Experimental data as given in patent US20250213686A1 (published 2025).

Legend:
[1] = molecular target: T1, DUF4435 domain-containing protein [Bacillus toyonensis] (IGRP305_324_path5) peptide on HLA-DRA*01:01 / … (human); assay: activation reporter or marker
T1 peptide: YDEVLQIPTHQENTQ

[2] = molecular target: T2, UDP-N-acetylglucosamine--N-acetylmuramyl-(pentapeptide) pyrophosphoryl-undecaprenol N-acetylglucosamine … (human); assay: activation reporter or marker
T2 peptide: AASFLHIPYFTHECD

[3] = molecular target: T3, TPA: UDP-N-acetylglucosamine--N-acetylmuramyl-(pentapeptide) pyrophosphoryl-undecaprenol N-acetylglucosamine … (human); assay: activation reporter or marker
T3 peptide: AARFLHIPYYTHECD

[4] = molecular target: T4, undecaprenyldiphospho-muramoylpentapeptide beta-N-acetylglucosaminyltransferase [Treponema sp.] … (human); assay: activation reporter or marker
T4 peptide: AAKFLHIPVFTHECD

[5] = molecular target: T5, exodeoxyribonuclease V subunit beta [Chlamydia caviae] (IGRP305_324_path12) peptide on HLA-DRA*01:01 / … (human); assay: activation reporter or marker
T5 peptide: CSPFLQIPSYEPIEY

[6] = molecular target: T6, hypothetical protein V495_01361 [Pseudogymnoascus sp. VKM F-4514 (FW-929)] (IGRP305_324_path15) peptide on … (human); assay: activation reporter or marker
T6 peptide: SAMFLDIPTHPEEHS

[7] = molecular target: T7, hypothetical protein GX51_07420 [Blastomyces parvus] (IGRP305_324_path16) peptide on HLA-DRA*01:01 / … (human); assay: activation reporter or marker
T7 peptide: KYEFLPIPTYEEATS

[8] = molecular target: T8, hypothetical protein T551_03071 [Pneumocystis jirovecii RU7] (IGRP305_324_path17) peptide on HLA-DRA*01:01 / … (human); assay: activation reporter or marker
T8 peptide: FTDFLNIPSYEELND

[9] = molecular target: T9, hypothetical protein KMI_05g09430 [Encephalitozoon hellem] (IGRP305_324_path18) peptide on HLA-DRA*01:01 / … (human); assay: activation reporter or marker
T9 peptide: LSEFLKIPNHEITLL

[10] = molecular target: T10, hypothetical protein ECU05_1220 [Encephalitozoon cuniculi GB-M1] (IGRP305_324_path19) peptide on … (human); assay: activation reporter or marker
T10 peptide: QQKFLKNIDTHEEAE

[11] = molecular target: T11, WD domain, G-beta repeat-containing protein [Toxoplasma gondii ARI] (IGRP305_324_path20) peptide on … (human); assay: activation reporter or marker
T11 peptide: ESLFLQLSTHTEASA

IGRP (islet-specific …) [12] = molecular target: T12, IGRP (islet-specific glucose-6-phosphatase-related protein) peptide on HLA-DRA*01:01 / HLA-DRB1*04:01 (human); assay: lower end of the range; % CD137-expressing cells; LV-transduced CD4+ T cells 3:1 with peptide-pulsed HLA-DR4 K562 cells, 20 h; full-length, on cells
IGRP (islet-specific …) [13] = molecular target: T12, IGRP (islet-specific …); assay: upper end of the range; % CD137-expressing cells; LV-transduced CD4+ T cells 3:1 with peptide-pulsed HLA-DR4 K562 cells, 20 h; full-length, on cells
IGRP (islet-specific …) [14] = molecular target: T12, IGRP (islet-specific …); assay: lower end of the range; CD154 surface expression intensity; LV-transduced CD4+ T cells 3:1 with peptide-pulsed HLA-DR4 K562 cells, 20 h; full-length, on cells
IGRP (islet-specific …) [15] = molecular target: T12, IGRP (islet-specific …); assay: upper end of the range; CD154 surface expression intensity; LV-transduced CD4+ T cells 3:1 with peptide-pulsed HLA-DR4 K562 cells, 20 h; full-length, on cells
IGRP (islet-specific …) [16] = molecular target: T12, IGRP (islet-specific …); assay: proliferation
[17] = molecular target: T13, Preproinsulin (PPI) peptide on HLA-DRA*01:01 / HLA-DRB1*04:01 (human); assay: proliferation
T13 peptide: SLQPLALEGSLQKRG

B1: T1D2 TCR (TCR, V domains shown)
Valpha: DQQVKQNSPSLSVQEGRISILNCDYTNSMFDYFLWYKKYPAEGPTFLISISSIKDKNEDGRFTVFLNKSAKHLSLHIVPSQPGDSAVYFCAATRTSGTYKYIFGTGTRLKVLA
Vbeta: NAGVTQTPKFRILKIGQSMTLQCTQDMNHNYMYWYRQDPGMGLKLIYYSVGAGITDKGEVPNGYNVSRSTTEDFPLRLELAAPSQTSVYFCASSPWGAGGTDTQYFGPGTRLTVL
[1]
  binding result: no recognition
[2]
  binding result: no recognition
[3]
  binding result: no recognition
[4]
  binding result: no recognition
[5]
  binding result: no recognition
[6]
  binding result: no recognition
[7]
  binding result: no recognition
[8]
  binding result: no recognition
[9]
  binding result: no recognition
[10]
  binding result: no recognition
[11]
  binding result: no recognition
IGRP (islet-specific …) [12]
  EC50 of peptide: ≥ 0.03 µg/mL
IGRP (islet-specific …) [13]
  EC50 of peptide: ≤ 0.1 µg/mL
IGRP (islet-specific …) [14]
  EC50 of peptide: ≥ 0.1 µg/mL
IGRP (islet-specific …) [15]
  EC50 of peptide: ≤ 0.3 µg/mL

B2: T1D4 TCR (TCR, V domains shown)
Valpha: KDQVFQPSTVASSEGAVVEIFCNHSVSNAYNFFWYLHFPGCAPRLLVKGSKPSQQGRYNMTYERFSSSLLILQVREADAAVYYCAVEDLNQAGTALIFGKGTTLSVSS
Vbeta: KAGVTQTPRYLIKTRGQQVTLSCSPISGHRSVSWYQQTPGQGLQFLFEYFSETQRNKGNFPGRFSGRQFSNSRSEMNVSTLELGDSALYLCASSLALGQGNQQFFGPGTRLTVL
IGRP (islet-specific …) [16]
  binding result: no recognition
[17]
  binding result: no recognition
